The subject of this data set is recombinant protein ACp5 (p5 cleavage site of the HIV protease inserted between amino acids 224 and 225 of the adenyl cyclase of B. pertussis).

wild-type protease of the HIV virus: the cleavage in vitro entry was “The cleavage of ACp5 by the HIV protease was also shown in vitro”; the “phenotype on McConkey maltose medium of DHT1 bacteria cotransformed with pKACp5 and pUCVIH” value is given as “exhibit a Cya^- phenotype (white colonies on McConkey maltose medium) in the absence of protease inhibitors”.

(Values after US20030175735.)
